Results published in patent US10799597B2, “Subcutaneous administration of antibody-drug conjugates for cancer therapy” (Immunomedics, Inc., priority 2017, dated 2020).
Values joined by “and” are separate entries in the source; they are usually repeats but may differ in a detail not shown here. Identical values can stand only once.

Experiments:
[1] = tested on: Capan-1 pancreatic adenocarcinoma xenografts; assay: Therapy of Capan-1 tumor xenografts in nude mice; format: in vivo, athymic nude mice; settings: 0.2 mg/kg SN-38 twice weekly×4 weeks
Experimental: FIG. 3C. […] Animals were treated twice weekly for 4 weeks as indicated by the arrows. Capan-1 mice (N=10) were treated with 0.2 mg/kg ADC and tumors measured weekly.
FIG. 4C. […] Capan-1 (N=10) were treated twice weekly for 4 weeks with the agents indicated.

[2] = Phase I/II clinical trial of IMMU-132 (Example 9): related adverse events
Experimental: (§2) To optimize cumulative treatment with minimal delays, phase II is focusing on 8 and 10 mg/kg (n=30 and 14, respectively). […] [table]

[3] = format: in vivo, human
Experimental: SN-38 was measured by HPLC.

[4] = Phase I/II trial of IMMU-132: MTD and toxicity profile; format: in vivo, human; settings: 75 patients in the full trial
Experimental: Patients with metastatic cancers were enrolled after failing standard therapy, starting at a dose of 8.0 mg/kg given on days 1 and 8 of a 3-week cycle.

[5] = tested on: human urinary bladder carcinoma (5637); assay: Efficacy of i.v. vs. s.c. IMMU-132 in 5637 bladder carcinoma xenografts; format: in vivo, athymic nude mice; settings: for mean tumor volume: day 82; for mice still alive on day 82: N=5; for median survival time (MST): post-therapy initiation
Experimental: 5637 cells were expanded in tissue culture and harvested with trypsin/EDTA. Female athymic nude mice were injected s.c. with 200 μL of 5637 cell suspension mixed 1:1 with matrigel such that 1×10^7 cells was administered to each mouse. Once tumors reached approximately 0.25 cm^3 in size (15 days later), the animals were divided up into three different treatment groups of 4-5 mice each. For the i.v. injections (N=5), mice receive 500 μg i.v. twice a week for four weeks. […] A final group of mice received only saline (N=4) and served as the untreated control. Tumors were measured and mice weighed twice a week. Mice were euthanized for disease progression if their tumor volumes exceeded 1.0 cm^3 in size.

[6] = tested on: COLO 205 colonic adenocarcinoma xenografts; settings: 0.4 mg/kg SN-38 twice weekly×4 weeks
Experimental: Animals were implanted subcutaneously with different human cancer cell lines. Tumor volume (TV) was determined by measurements in 2 dimensions using calipers, with volumes defined as: L×w^2/2, where L is the longest dimension of the tumor and w is the shortest. […] This dosing frequency reflected a consideration of the conjugate's serum half-life in vitro, to allow a more continuous exposure to the ADC.
Growth curves are shown as percent change in initial TV over time. Statistical analysis of tumor growth was based on area under the curve (AUC). Profiles of individual tumor growth were obtained through linear-curve modeling. An f-test was employed to determine equality of variance between groups before statistical analysis of growth curves. A 2-tailed t-test was used to assess statistical significance between the various treatment groups and controls, except for the saline control, where a 1-tailed t-test was used (significance at P≤0.05). Statistical comparisons of AUC were performed only up to the time that the first animal within a group was euthanized due to progression.

[7] = tested on: Calu-3; assay: Signaling events (p21Waf1/Cip1, p53) in Calu-3 cells; format: cell-based, human
Text: (§1) SN-38 is known to activate several signaling pathways in cells, leading to apoptosis (e.g., Cusack et al., 2001, Cancer Res 61:3535-40; Liu et al. 2009, Cancer Lett 274:47-53; Lagadec et al., 2008, Br J Cancer 98:335-44). Our initial studies examined the expression of 2 proteins involved in early signaling events (p21^Waf1/Cip1 and p53) and 1 late apoptotic event [cleavage of poly-ADP-ribose polymerase (PARP)] in vitro (not shown).

[8] = tested on: diverse metastatic cancers; assay: Phase I/II clinical trial of IMMU-132 (Example 9): best response and TTP
Experimental: as §2

[9] = Pharmacokinetics and biodistribution of 111In-labeled hRS7-CL2A-SN-38 and hRS7 IgG in nude mice bearing SK-MES-1 tumors; format: in vivo
Experimental: One group was injected intravenously with 20 μCi (250-μg protein) of ^111In-hRS7-CL2A-SN-38, whereas another group received 20 μCi (250-μg protein) of ^111In-hRS7 IgG. At various timepoints mice (5 per timepoint) were anesthetized, bled via intracardiac puncture, and then euthanized. Tumors and various tissues were removed, weighed, and counted by γ scintillation to determine the percentage injected dose per gram tissue (% ID/g). […] Pharmacokinetic analysis on blood clearance was performed using WinNonLin software (Parsight Corp.).

[10] = tested on: advanced GI cancers; assay: Phase I/II trial of IMMU-132 in patients with advanced GI cancers: best response by RECIST and time to progression; format: in vivo, human; settings: for median TTP: SD patients
Experimental: Patients with metastatic cancers were enrolled after failing standard therapy, starting at a dose of 8.0 mg/kg given on days 1 and 8 of a 3-week cycle. […]

[11] = Tolerability in Cynomolgus monkeys; format: in vivo, Cynomolgus monkeys (Macaca fascicularis)
Experimental: FIG. 5C. Tolerability of hRS7-CL2A-SN-38 in Cynomolgus monkeys. […] All animals were bled on day −1, 3, and 6. Four monkeys were bled on day 11 in the 0.96 mg/kg group, 3 in the 1.92 mg/kg group. Changes in neutrophil counts in Cynomolgus monkeys.
FIG. 5D. Tolerability of hRS7-CL2A-SN-38 in Cynomolgus monkeys. […] All animals were bled on day −1, 3, and 6. Four monkeys were bled on day 11 in the 0.96 mg/kg group, 3 in the 1.92 mg/kg group. Changes in platelet counts in Cynomolgus monkeys.

[12] = tested on: BxPC-3; assay: Signaling events (p21Waf1/Cip1, p53) in BxPC-3 cells; format: cell-based, human
Text: as §1

[13] = 49 patients reporting related AE
[14] = related AE, N = 47 patients, CTCAE v 4.0
[15] = 48 assessable patients (excluding PDC)
[16] = one gastric cancer patient with SD

## IMMU-132: ADC of the humanized hRS7 anti-Trop-2 antibody conjugated by a pH-sensitive linker (CL2A) to SN-38
[1]
  tumor growth vs. saline and hA20-CL2A-SN-38: significantly inhibited tumor growth
[1]; day 140
  mice tumor-free at the end of the study: 50%
[2]; [13]
  alopecia: 40%
  diarrhea: 47%
  fatigue: 55%
  nausea: 53%
  neutropenia G4: 4%
  vomiting: 32%
[2]; [14]
  Abdominal pain, Grade 3, patients (%): 0
  Abdominal pain, Grade 4, patients (%): 0
  Anemia, Grade 3, patients (%): 2 (4%)
  Anemia, Grade 4, patients (%): 0
  Deep vein thrombosis, Grade 3, patients (%): 1 (2%)
  Deep vein thrombosis, Grade 4, patients (%): 0
  Diarrhea, Grade 3, patients (%): 4 (9%)
  Diarrhea, Grade 4, patients (%): 0
  Dysgeusia, Grade 3, patients (%): 0
  Dysgeusia, Grade 4, patients (%): 0
  Fatigue, Grade 3, patients (%): 4 (9%)
  Fatigue, Grade 4, patients (%): 0
  Febrile Neutropenia, Grade 3, patients (%): 1 (2%)
  Febrile Neutropenia, Grade 4, patients (%): 2 (4%)
  Hypokalemia, Grade 3, patients (%): 1 (2%)
  Hypokalemia, Grade 4, patients (%): 0
  Nausea, Grade 3, patients (%): 0
  Nausea, Grade 4, patients (%): 0
  Neutropenia, Grade 3, patients (%): 11 (24%)
  Neutropenia, Grade 4, patients (%): 2 (4%)
  Pyrexia, Grade 3, patients (%): 0
  Pyrexia, Grade 4, patients (%): 0
  Vomiting, Grade 3, patients (%): 1 (2%)
  Vomiting, Grade 4, patients (%): 0
  WBC Decrease, Grade 3, patients (%): 1 (2%)
  WBC Decrease, Grade 4, patients (%): 0
[3]; ELISA
  clearance of intact conjugate vs. the IgG: cleared more quickly than the IgG
[3]; patients
  time for the conjugate to clear from the serum: ≤ 3 days
[4]
  Grade 3 diarrhea: 6.7%
  Grade 3 neutropenia: 17.3%
  Grade 4 neutropenia: 2.7%
[5]; i.v. 500 μg twice a week for four weeks
  mean tumor volume: 0.066±0.076 cm^3
[5]; i.v.
  mice still alive on day 82: 5
  median survival time (MST): > 67 days
[5]; s.c. 500 μg twice weekly for four weeks
  mean tumor volume: 0.111±0.057 cm^3
[5]; s.c.
  mice still alive on day 82: 5
  median survival time (MST): > 67 days
[6]
  tumor growth vs. saline and hA20-CL2A-SN-38: significantly inhibited tumor growth
[7]
  increase of p21Waf1/Cip1 expression over free SN-38: more than 2 fold
  time of p53 upregulation: ≤ 24 h
[8]; 13 CT-assessable PDC patients
  patients with SD: 62%
[8]; [15]
  patients with disease response (total): 79%
  patients with partial response (PR): 15%
[8]; PDC patients
  median time to progression (TTP): 12.7 wks and 11.9 wks
[9]; 72 hours (peak uptake)
  amount in the tumor compared with hRS7 IgG: similar
[9]; i.v., 250-μg protein
  half-life shorter than unconjugated hRS7: ~40%
[10]; 29 CRC patients (9 at 10 mg/kg, 20 at 8 mg/kg)
  PR (partial response) as best response by RECIST, number of patients: 1
[10]; CRC patient with PR
  target lesion change of the PR: −65%
  time to progression (TTP) for the PR: ≥ 50 wks
[10]; CRC with KRAS mutations
  median TTP: ≥ 19.1 wks
[10]; CRC, 14 SD patients (5 continuing)
  median TTP for the SD patients: ≥ 21 wks
[10]; esophageal cancer
  TTP of the PR: ≥ 30 wks
  duration of SD in individual patients: ≥ 17.4 wks and 21.9 wks and 26.3 wks and 29.9 wks
[10]; [16]
  ongoing TTP: ≥ 29 wks
  target lesion reduction: 19%
[10]; pancreatic cancer
  median TTP: 15.0 wks
[11]; 2×0.96 mg SN-38/kg, transient decreases
  blood count values: did not fall below normal ranges
[11]; cynomolgus monkey, in vivo
  MTD, human equivalent dose: 2×0.3 to 0.6
[12]
  time of p53 upregulation: ≤ 24 h
